Numbering of substitutions follows the chain as printed. Numbers in names are those of the source.
T1: Cre recombinase monomer with Q311R mutation
T1 chain: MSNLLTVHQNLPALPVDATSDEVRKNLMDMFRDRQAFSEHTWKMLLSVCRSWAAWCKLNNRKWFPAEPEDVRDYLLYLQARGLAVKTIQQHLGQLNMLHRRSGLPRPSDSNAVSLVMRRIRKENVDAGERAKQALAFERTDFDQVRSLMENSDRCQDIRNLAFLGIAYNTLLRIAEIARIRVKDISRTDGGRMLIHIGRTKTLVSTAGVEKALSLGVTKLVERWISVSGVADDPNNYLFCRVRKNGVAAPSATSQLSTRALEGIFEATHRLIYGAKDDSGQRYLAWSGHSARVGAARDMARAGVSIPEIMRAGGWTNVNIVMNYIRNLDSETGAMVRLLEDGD

T2: Cre recombinase monomer with K201R mutation
T2 chain: T1 chain with K201R, R311Q

T3: Cre recombinase monomer with E176V mutation
T3 chain: T1 chain with E176V, R311Q

T4: Cre recombinase monomer with Y324T mutation
T4 chain: T1 chain with R311Q, Y324T

T5: Cre recombinase monomer with E176H mutation
T5 chain: T1 chain with E176H, R311Q

B1: Cre recombinase monomer with E176Y mutation (protein)
chain: T1 chain with E176Y, R311Q
B2: Cre recombinase monomer with R173V mutation (protein)
chain: T1 chain with R173V, R311Q
B3: Cre recombinase monomer with R173Y mutation (protein)
chain: T1 chain with R173Y, R311Q
B4: Cre recombinase monomer with R173P mutation (protein)
chain: T1 chain with R173P, R311Q
B5: Cre recombinase monomer with R292H mutation (protein)
chain: T1 chain with R292H, R311Q
B6: Cre recombinase monomer with R173D mutation (protein)
chain: T1 chain with R173D, R311Q
B7: Cre recombinase monomer with H289D mutation (protein)
chain: T1 chain with H289D, R311Q
B8: Cre recombinase monomer with R292W mutation (protein)
chain: T1 chain with R292W, R311Q
B9: Cre recombinase monomer with R292Q mutation (protein)
chain: T1 chain with R292Q, R311Q
B10: Cre recombinase monomer with E176L mutation (protein)
chain: T1 chain with E176L, R311Q
B11: Cre recombinase monomer with H289I mutation (protein)
chain: T1 chain with H289I, R311Q
B12: Cre recombinase monomer with R292C mutation (protein)
chain: T1 chain with R292C, R311Q
B13: Cre recombinase monomer with R292N mutation (protein)
chain: T1 chain with R292N, R311Q
B14: Cre recombinase monomer with K201T mutation (protein)
chain: T1 chain with K201T, R311Q
B15: Cre recombinase monomer with K201L mutation (protein)
chain: T1 chain with K201L, R311Q
B16: Cre recombinase monomer with R173A mutation (protein)
chain: T1 chain with R173A, R311Q
B17: Cre recombinase monomer with K201M mutation (protein)
chain: T1 chain with K201M, R311Q
B18: Cre recombinase monomer with R173K mutation (protein)
chain: T1 chain with R173K, R311Q
B19: Cre recombinase monomer with K201S mutation (protein)
chain: T1 chain with K201S, R311Q
B20: Cre recombinase monomer with R292A mutation (protein)
chain: T1 chain with R292A, R311Q
B21: Cre recombinase monomer with R292P mutation (protein)
chain: T1 chain with R292P, R311Q
B22: Cre recombinase monomer with K201G mutation (protein)
chain: T1 chain with K201G, R311Q
B23: Cre recombinase monomer with K201R mutation (protein)
chain: T1 chain with K201R, R311Q
B24: Cre recombinase monomer with E176M mutation (protein)
chain: T1 chain with E176M, R311Q
B25: Cre recombinase monomer with R173E mutation (protein)
chain: T1 chain with R173E, R311Q
B26: Cre recombinase monomer with R292V mutation (protein)
chain: T1 chain with R292V, R311Q
B27: Cre recombinase monomer with R292F mutation (protein)
chain: T1 chain with R292F, R311Q
B28: Cre recombinase monomer with K201H mutation (protein)
chain: T1 chain with K201H, R311Q
B29: Cre recombinase monomer with R292S mutation (protein)
chain: T1 chain with R292S, R311Q
B30: Cre recombinase monomer with R292G mutation (protein)
chain: T1 chain with R292G, R311Q
B31: Cre recombinase monomer with R292I mutation (protein)
chain: T1 chain with R292I, R311Q
B32: Cre recombinase monomer with K201I mutation (protein)
chain: T1 chain with K201I, R311Q
B33: Cre recombinase monomer with R292L mutation (protein)
chain: T1 chain with R292L, R311Q
B34: Cre recombinase monomer with H289R mutation (protein)
chain: T1 chain with H289R, R311Q
B35: Cre recombinase monomer with K201A mutation (protein)
chain: T1 chain with K201A, R311Q

Key:
[1] = molecular target: T1, Cre recombinase monomer with Q311R …
[2] = molecular target: T2, Cre recombinase monomer with K201R …
[3] = molecular target: T3, Cre recombinase monomer with E176V …
[4] = molecular target: T4, Cre recombinase monomer with Y324T …
[5] = molecular target: T5, Cre recombinase monomer with E176H …

Row | Protein | Median dimer activity (recombination on loxP) [1] | other results
1 | B1 | 79% | Median dimer activity (recombination on loxP) [2]: 39%
2 | B2 | 92% | Median dimer activity (recombination on loxP) [3]: 53%
3 | B3 | 92% | Median dimer activity (recombination on loxP) [3]: 35%
4 | B4 | 94% | Median dimer activity (recombination on loxP) [4]: 47%
5 | B5 | 88% | 
6 | B6 | 89% | Median dimer activity (recombination on loxP) [3]: 53%; Median dimer activity (recombination on loxP) [5]: 29%
7 | B7 | 97% | 
8 | B8 | 88% | 
9 | B9 | 70% | 
10 | B10 | 40% | 
11 | B11 | 75% | 
12 | B12 | 93% | 
13 | B13 | 95% | 
14 | B14 | 94% | 
15 | B15 | 92% | Median dimer activity (recombination on loxP) [4]: 25%
16 | B16 | 93% | 
17 | B17 | 93% | Median dimer activity (recombination on loxP) [2]: 76%
18 | B18 | 84% | 

Row | Protein | Median dimer activity (recombination on loxP) [1] | other results
19 | B19 | 95% | 
20 | B20 | 96% | 
21 | B21 | 76% | 
22 | B22 | 90% | 
23 | B23 | 98% | 
24 | B24 | 82% | Median dimer activity (recombination on loxP) [2]: 35%
25 | B25 | 80% | Median dimer activity (recombination on loxP) [5]: 32%
26 | B26 | 95% | 
27 | B27 | 42% | 
28 | B28 | 94% | 
29 | B29 | 97% | 
30 | B30 | 97% | 
31 | B31 | 97% | 
32 | B32 | 86% | 
33 | B33 | 93% | 
34 | B34 | 79% | 
35 | B35 | 95% | Median dimer activity (recombination on loxP) [2]: 64%

Source: US20230183713A1, “SITE-SPECIFIC RECOMBINASES FOR EFFICIENT AND SPECIFIC GENOME EDITING” (TECHNISCHE UNIVERSITÄt DRESDEN, published 2023)
